# Reference: US20110256557A1, “IDENTIFYING PARATHYROID HORMONE AGONISTS AND ANTAGONISTS” (DISCOVERYBIOMED, INC., priority 2008, published 2011)
# T1: PTH1R (Homo sapiens, UniProt Q03431)
# T1 sequence (Q03431 27-593): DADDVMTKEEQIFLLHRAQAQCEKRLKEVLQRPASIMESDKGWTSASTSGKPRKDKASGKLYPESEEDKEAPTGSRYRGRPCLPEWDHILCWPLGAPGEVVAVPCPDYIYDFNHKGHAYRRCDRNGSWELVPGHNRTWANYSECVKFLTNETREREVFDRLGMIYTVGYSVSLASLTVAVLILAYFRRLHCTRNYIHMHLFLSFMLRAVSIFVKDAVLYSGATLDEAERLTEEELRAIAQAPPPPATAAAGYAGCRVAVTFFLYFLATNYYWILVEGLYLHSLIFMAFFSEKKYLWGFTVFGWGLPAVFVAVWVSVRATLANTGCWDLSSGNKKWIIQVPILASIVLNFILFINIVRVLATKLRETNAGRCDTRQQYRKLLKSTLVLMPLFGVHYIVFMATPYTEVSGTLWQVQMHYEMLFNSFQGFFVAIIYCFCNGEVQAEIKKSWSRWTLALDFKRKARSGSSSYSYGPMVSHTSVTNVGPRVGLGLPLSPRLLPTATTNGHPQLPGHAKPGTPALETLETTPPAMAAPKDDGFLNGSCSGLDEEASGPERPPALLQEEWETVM
# Legend:
# β-catenin in osteoblasts = assay: Immunohistochemistry of β-catenin in bone sections after single-dose injection, rats; assay type: in vivo, rat; details: for positive staining of β-catenin in osteoblasts: five month-old rats, single i.v. dose 40 μg/kg, 8 hours after injection
# Description: For the experiments in which rats or mice were administered PTH as single-dose injection, five-month-old male Sprague Dawley rats (Charles River Laboratories; Wilmington, Mass.) or two-month-old male C57BL/J6 mice (Jackson Laboratory; Bar Harbor, Me.) (6 per group) were administered a single dose of either vehicle (1 mM acetic acid in sterile PBS) or PTH (1-34) (Bachem Inc.; Torrance, Calif.) at 40 μg/kg in a volume of 100 μl. In the mouse model, mouse recombinant Wnt3a (R&D Systems; Minneapolis, Minn.) was injected at 25 μg/kg in a volume of 100 μl. All treatments were through bolus intravenous injection via the tail vein. Rats/mice were sacrificed at 0.5, 2, 8 and 24 hours after injection.
# Formalin-fixed femur or tibia tissue sections of 5 μm thickness from rats or mice were processed with antigen retrieval and hydrogen peroxide treatment prior to incubation with primary monoclonal antibody specific for β-catenin (BD Biosciences; San Jose, Calif.), goat polyclonal antibody sclerostin (R&D Systems; Minneapolis, Minn.) or rabbit polyclonal phosphorylated LRP6 (Ab1490) for 1 hour at room temperature or overnight at 4° C. Negative controls were obtained by replacing the primary antibodies with irrelevant control isotype IgG. […] In the rat model, numbers of total osteoblasts and numbers of β-catenin- or p-LRP6-positive osteoblasts were counted in three random high power fields at metaphysis subjacent to the epiphyseal growth plates or the diaphyseal hematopoietic bone marrow per specimen, and a total of six specimens in each group were used. In the mouse model, numbers of total osteoblasts and numbers of β-catenin-positive osteoblasts were counted in three random high power fields in a 2-mm square, 1 mm distal to the lowest point of the growth plate in the secondary spongiosa. Numbers of total osteocytes and numbers of sclerostin-positive osteocytes were counted in three random high power fields per trabecular bone section or cortical bone section, and a total of six specimens in each group were used.
# PTH1R = biological target: T1, PTH1R; assay: Co-immunoprecipitation of exogenous LRP5/LRP6 constructs with PTH1R in HEK293 cells; assay type: cell-based; details: co-expressed with PTH1R in HEK293 cells
# Description: PTH1R tagged with HA was subcloned into pcDNA3.1. cDNAs from human LRP5 (Mao et al., Mol. Cell. 7:801-9 (2001)) and LRP6 (Tamai et al., Nature 407:530-35 (2000)) tagged with HA and VSVG were subcloned into pCMV and pCS2^+, respectively. LRP6N+T (LRP6 N-terminal plus the transmembrane domain) and LRP6T+C (LRP6 transmembrane domain plus C-terminal) tagged with VSVG were subcloned into pCS2^+. LRP6N+1479m, LRP6N+1490m, LRP6N+1493m and LRP6N+1496m were generated by mutagenesis of either the serine (at amino acid 1490 or amino acid 1496) or threonine (at amino acid 1479 or amino acid 1493) to alanine LRP6N-IgG was generated by fusing the LRP6 extracellular domain with IgG (Tamai et al., Nature 407:530-35 (2000)). si-GFP (Wan et al., Am. J. Pathol. 166:1379-92 (2005)) and si-LRP6 plasmids were generated using a BS/U6 vector. Briefly, a 22-nucleotide oligo (oligo 1) corresponding to nucleotides 2981 to 3002 of the human LRP6 coding region was first inserted into the BS/U6 vector digested with ApaI (blunted) and HindIII. The inverted motif that contains the six-nucleotide spacer and five Ts (oligo 2) was then subcloned into the HindIII and EcoRI sites of the intermediate plasmid to generate BS/U6/LRP5/6.
# (§1) Cells were harvested in cavitation buffer (5 mM HEPES, pH 7.4, 3 mM MgCl2, 1 mM EGTA, 250 mM sucrose) containing protease and phosphatase inhibitors and homogenized by nitrogen cavitation (200 p.s.i., for 5 minutes) in a cell disruption bomb (Parr Instrument Co.; Moline, Ill.). The cell homogenate was centrifuged twice at 700 g for 10 minutes to pellet the nuclei. The supernatant was further centrifuged at 100,000 g (Beckman SW50.1 rotor) for 1 hour to separate the membrane and cytosol fractions, and the resulting membrane pellet was washed three times with cavitation buffer before use in the assays (Zhang et al., Biochem. J. 343:541-9 (1999)). Immunoprecipitation and Western blot analysis of cell lysates were performed as described previously (Wan et al., Am. J. Pathol. 166:1379-92 (2005)).
# [1] = system: luciferase reporter bearing TCF/LEF binding elements; assay: TCF/LEF luciferase reporter assay in UMR-106 cells; assay type: cell-based, rat; details: UMR-106 cells treated with PTH
# Description: HEK293, UMR-106 and mouse embryonic fibroblast (MEF) cells were maintained in Dulbecco's Modified Eagle Medium (DMEM) with 10% Fetal Calf Serum (FCS). Mouse Wnt3a conditioned medium (Wnt3a CM) was produced from mouse L cells stably transfected with mouse Wnt3a (American Type Culture Collection; Manassas, Va.) and control conditioned medium (Control CM) was from non-transfected L cells. IgG, LRP6N-IgG, DKK1, Sclerostin, VSVG-LRP6N and Myc-Fz8CRD conditioned media were produced from HEK 293 cells transfected with the individual plasmids. Transfections were carried out using lipofectamine reagent (Invitrogen; Carlsbad, Calif.). Luciferase assays were carried out in either UMR-106 or HEK 293 cells as described previously (Wan et al., Am. J. Pathol. 166:1379-92 (2005)), with 0.3 μg of TCF-Luc reporter plasmid plus 50 ng of Renilla luciferase plasmid (internal control) per well in the 12-well plate. Experiments were repeated at least three times with triplicate for each experiment.
# β-catenin = assay: Western blot of cytosolic β-catenin in HEK 293 cells; assay type: cell-based; details: for effect on PTH-elevated β-catenin level (accumulation in cytosol/cytoplasm): PTH-treated cells (FIG. 5 cells not stated; FIG. 10, 27 HEK293)
# Description: as §1
Molecule,binding of LRP6 construct to PTH1R (IP assay) (PTH1R),effect on PTH-stimulated TCF/LEF luciferase (transcriptional) activity [1],effect on PTH-elevated β-catenin level (accumulation in cytosol/cytoplasm) (β-catenin),further results
"PTH (1-34): C-terminal-truncated synthetic analog of PTH with an anabolic effect on bone formation in humans (SVSEIQLMHNLGKHLNSMERVEWLRKKLQDVHNF; Parathyroid hormone; UniProt P01270 32-65, looked up, fragment)",,,,"positive staining of β-catenin in osteoblasts (β-catenin in osteoblasts; diaphyseal bone marrow): about 90.24±0.68%; positive staining of β-catenin in osteoblasts (β-catenin in osteoblasts; metaphysis subjacent to the epiphyseal growth plates): 99.08±0.57%; expression of β-catenin in preosteoblasts and osteoblasts on the bone surface (β-catenin in osteoblasts; rats, single dose, trabecular bone, within hours): induced"
"LRP6N+T: truncated LRP6 containing the extracellular and transmembrane domains, tagged with VSVG (protein, left off: small tags and cut ends, truncated LRP6 containing the extracellular and transmembrane domains, tagged with VSVG) APLLLYANRRDLRLVDATNGKENATIVVGGLEDAAAVDFVFSHGLIYWSDVSEEAIKRTEFNKTESVQNVVVSGLLSPDGLACDWLGEKLYWTDSETNRIEVSNLDGSLRKVLFWQELDQPRAIALDPSSGFMYWTDWGEVPKIERAGMDGSSRFIIINSEIYWPNGLTLDYEEQKLYWADAKLNFIHKSNLDGTNRQAVVKGSLPHPFALTLFEDILYWTDWSTHSILACNKYTGEGLREIHSDIFSPMDIHAFSQQRQPNATNPCGIDNGGCSHLCLMSPVKPFYQCACPTGVKLLENGKTCKDGATELLLLARRTDLRRISLDTPDFTDIVLQLEDIRHAIAIDYDPVEGYIYWTDDEVRAIRRSFIDGSGSQFVVTAQIAHPDGIAVDWVARNLYWTDTGTDRIEVTRLNGTMRKILISEDLEEPRAIVLDPMVGYMYWTDWGEIPKIERAALDGSDRVVLVNTSLGWPNGLALDYDEGKIYWGDAKTDKIEVMNTDGTGRRVLVEDKIPHIFGFTLLGDYVYWTDWQRRSIERVHKRSAEREVIIDQLPDLMGLKATNVHRVIGSNPCAEENGGCSHLCLYRPQGLRCACPIGFELISDMKTCIVPEAFLLFSRRADIRRISLETNNNNVAIPLTGVKEASALDFDVTDNRIYWTDISLKTISRAFMNGSALEHVVEFGLDYPEGMAVDWLGKNLYWADTGTNRIEVSKLDGQHRQVLVWKDLDSPRALALDPAEGFMYWTEWGGKPKIDRAAMDGSERTTLVPNVGRANGLTIDYAKRRLYWTDLDTNLIESSNMLGLNREVIADDLPHPFGLTQYQDYIYWTDWSRRSIERANKTSGQNRTIIQGHLDYVMDILVFHSSRQSGWNECASSNGHCSHLCLAVPVGGFVCGCPAHYSLNADNRTCSAPTTFLLFSQKSAINRMVIDEQQSPDIILPIHSLRNVRAIDYDPLDKQLYWIDSRQNMIRKAQEDGSQGFTVVVSSVPSQNLEIQPYDLSIDIYSRYIYWTCEATNVINVTRLDGRSVGVVLKGEQDRPRAVVVNPEKGYMYFTNLQERSPKIERAALDGTEREVLFFSGLSKPIALALDSRLGKLFWADSDLRRIESSDLSGANRIVLEDSNILQPVGLTVFENWLYWIDKQQQMIEKIDMTGREGRTKVQARIAQLSDIHAVKELNLQEYRQHPCAQDNGGCSHICLVKGDGTTRCSCPMHLVLLQDELSCGEPPTCSPQQFTCFTGEIDCIPVAWRCDGFTECEDHSDELNCPVCSESQFQCASGQCIDGALRCNGDANCQDKSDEKNCEVLCLIDQFRCANGQCIGKHKKCDHNVDCSDKSDELDCYPTEEPAPQATNTVGSVIGVIVTIFVSGTVYFI",associated with PTH1R as effectively as did full-length LRP6,,,
"LRP6T+C: truncated LRP6 containing the transmembrane and intracellular domains, tagged with VSVG (protein, left off: small tags and cut ends, truncated LRP6 containing the transmembrane and intracellular domains, tagged with VSVG) TNTVGSVIGVIVTIFVSGTVYFICQRMLCPRMKGDGETMTNDYVVHGPASVPLGYVPHPSSLSGSLPGMSRGKSMISSLSIMGGSSGPPYDRAHVTGASSSSSSSTKGTYFPAILNPPPSPATERSHYTMEFGYSSNSPSTHRSYSYRPYSYRHFAPPTTPCSTDVCDSDYAPSRRMTSVATAKGYTSDLNYDSEPVPPPPTPRSQYLSAEENYESCPPSPYTERSYSHHLYPPPPSPCTDSS",could barely be detected,,,
"sclerostin: secreted protein binding to LRP6 at the extracellular domain (protein, UniProt Q9BQB4 24-213, looked up) Sclerostin: QGWQAFKNDATEIIPELGEYPEPPPELENNKTMNRAENGGRPPHHPFETKDVSEYSCRELHFTRYVTDGPCRSAKPVTELVCSGQCGPARLLPNAIGRGKWWRPSGPDFRCIPDRYRAQRVQLLCPGGEAPRARKVRLVASCKCKRLTRFHNQSELKDFGTEAARPQKGRKPRPRARSAKANQAELENAY",,disrupted,disrupted,
"DKK1: secreted protein binding to LRP6 at the extracellular domain (protein, UniProt O94907 32-266, looked up) Dickkopf-related protein 1: TLNSVLNSNAIKNLPPPLGGAAGHPGSAVSAAPGILYPGGNKYQTIDNYQPYPCAEDEECGTDEYCASPTRGGDAGVQICLACRKRRKRCMRHAMCCPGNYCKNGICVSSDQNHFRGEIEETITESFGNDHSTLDGYSRRTTLSSKMYHTKGQEGSVCLRSSDCASGLCCARHFWSKICKPVLKEGQVCTKHRRKGSHGLEIFQRCYCGEGLSCRIQKDHHQASNSSRLHTCQRH",,disrupted,disrupted,effect on Wnt3a-elevated β-catenin level (β-catenin; Wnt3a-treated cells (FIG. 5 cells not stated; FIG. 27 HEK293)): reduced
